Tests used:
[1] = target: STY3178, a yfdX protein from Salmonella Typhi (Salmonella Typhi (CT18)); experiment: NMR relaxation (1D 1H-15N T1 and T2, rotational correlation time)
[2] = target: STY3178, a yfdX protein from Salmonella Typhi (Salmonella Typhi (CT18)); experiment: SEC

Q: “STY3178, a yfdX protein from Salmonella Typhi (natural protein)” was tested. Which stoichiometry N [1] did it give?
A: 3

Q: What about the stoichiometry N [2] of the same substance?
A: 3

— publication PMC4759549
